Values belong to the binder of their own block, whether it stands above or below them. Bridge positions count the residues as written; N and C are the ends. Ends that are not written are not given here. I, II: the chains in the order shown.
Columns and labels:
[1] = target: T1, Carboxypeptidase R (CPR) (human, UniProt Q96IY4 115-423); test: enzyme kinetics, Ki against that of PCI
T1 construct: domain: 309-amino acid enzyme (CPR; 35 kDa) after cleavage at Arg92; also called plasma carboxypeptidase B (CPB); carboxypeptidase U (CPU)
T1 sequence (looked up): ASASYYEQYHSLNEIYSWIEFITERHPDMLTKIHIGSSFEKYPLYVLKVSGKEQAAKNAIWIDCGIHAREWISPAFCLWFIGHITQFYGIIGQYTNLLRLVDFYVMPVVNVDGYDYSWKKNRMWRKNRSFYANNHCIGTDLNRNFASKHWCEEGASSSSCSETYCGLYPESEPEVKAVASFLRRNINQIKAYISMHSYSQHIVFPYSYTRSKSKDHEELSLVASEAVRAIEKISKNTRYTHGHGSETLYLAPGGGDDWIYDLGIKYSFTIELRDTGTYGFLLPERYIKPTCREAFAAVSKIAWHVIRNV
Procedure: (§1) The reduced inhibitory activity of this PCI-derived peptide may be attributed to the absence of two of the three disulfide bridges founds in wild type PCI, effectively resulting in increased mobility of all residues.
(§2) The activity of the CPR inhibitors was determined against purified CPR using hippuryl-L-arginine as the substrate. The peptides PCI-2K-R, CPI-2KR, PCI (500, 250/125/62.5, 50 mg/ml, respectively) or Tris-HCl buffer (50 mM; pH 7.5) were added to active CPR (40-320 mg/ml) at a 1:7 ratio. After thorough mixing, […] was incubated with various concentrations of hippuryl-L-arginine (1.2-6.0 mM), for 15 minutes at 37° C. The reaction was stopped with the addition of sodium phosphate buffer ([…]; 0.25 M), immediately followed by 3% cyanuric chloride in 1,4-dioxane ([…]). After mixing well, the generation of hippuric acid was determined by measuring the OD at 405 nm on a SpectraMAX 250 Microplate Spectrophotometer (Molecular Device Corporation, Sunnyvale, Calif., USA). Hippuric acid (0-2.0 mM) in Tris buffer was used as the standard.
(§3) A kinetics analysis of the CPR-catalysed hydrolysis of hippuryl-L-arginine in the absence and presence of inhibitory molecules was performed. The Lineweaver-Burk reciprocal plot, based on rearrangement of the Henri-Michaelis-Menten equation into a linear form, was applied: […]

[2] = target: T1, Carboxypeptidase R (CPR); test: enzyme kinetics, CPR hydrolysis of hippuryl-L-arginine, competitive inhibition
Procedure: as §1, §2, §3

[3] = target: T2, CPI-2KR (linear 9-mer peptide Cys-Lys-Pro-Ala-Lys-Asn-Ala-Arg-Cys)
T2 chain: CKPAKNARC

[4] = target: T1, Carboxypeptidase R (CPR); test: cell-based or functional assay
[5] = target: T1, Carboxypeptidase R (CPR); test: enzyme kinetics, Ki against that of PCI-2K-R
Procedure: (§4) In order to gain insight into the inhibitory mechanism of CPI-2KR against CPR, a classical Henri-Michaelis-Menten kinetics analysis was performed. Since the Lineweaver-Burke plot (FIG. 3C) is prone to error, particularly at low concentrations of inhibitor and substrate, the Dixon plot (1/v versus [I]) was employed to evaluate the inhibitory mechanism of CPI-2KR (FIG. 3D). Replotting of the slopes of the Dixon plot against 1/[S] confirmed that CPR-2KR is a competitive inhibitor of CPR given that the line went through the origin (FIG. 3D insert). The Km Kmₐₚₚ and Vmax were determined from the data obtained for no inhibitor and the highest inhibitor concentration (253 nM) from the Lineweaver-Burke plots (FIG. 3E) . These values were in turn used to calculate the dissociation constant of CPI-2KR (Ki).
(§5) The activity of the CPR inhibitors was determined against purified CPR using hippuryl-L-arginine as the substrate. The peptides PCI-2K-R, CPI-2KR, PCI (500, 250/125/62.5, 50 mg/ml, respectively) or Tris-HCl buffer (50 mM; pH 7.5) were added to active CPR (40-320 mg/ml) at a 1:7 ratio. […] After mixing well, the generation of hippuric acid was determined by measuring the OD at 405 nm on a SpectraMAX 250 Microplate Spectrophotometer (Molecular Device Corporation, Sunnyvale, Calif., USA). […]

[6] = target: T1, Carboxypeptidase R (CPR); test: enzyme kinetics, CPR hydrolysis of hippuryl-L-arginine, Lineweaver-Burke at 253 nM inhibitor
Procedure: as §4, §5

- fold lower inhibitory activity compared to PCI [1]: 290 fold
- Ki [2]: 407 nM
B1: PCI-2K-R (heterodimer of PCI-2K and PCI-R joined by a disulfide bond) (peptide)
chain 1: NKPCKTHDD-NH2
chain 2: QACWNSART-NH2
modifications: disulfide I:4-II:3; N-terminus assumed
SMILES: C[C@H](NC(=O)[C@H](CO)NC(=O)[C@H](CC(N)=O)NC(=O)[C@H](Cc1c[nH]c2ccccc12)NC(=O)[C@H](CSSC[C@H](NC(=O)[C@@H]1CCCN1C(=O)[C@H](CCCCN)NC(=O)[C@@H](N)CC(N)=O)C(=O)N[C@@H](CCCCN)C(=O)N[C@H](C(=O)N[C@@H](Cc1c[nH]cn1)C(=O)N[C@@H](CC(=O)O)C(=O)N[C@@H](CC(=O)O)C(N)=O)[C@@H](C)O)NC(=O)[C@H](C)NC(=O)[C@@H](N)CCC(N)=O)C(=O)N[C@@H](CCCNC(=N)N)C(=O)N[C@H](C(N)=O)[C@@H](C)O
notes: also called CPI-2K-R (label in claim 5)

- Ki [2]: 1.4 nM
Binder: QQHADPICNKPCKTHDDCSGAWFCQACWNSARTCGPYVG (other, UniProt P01075 1-39, looked up, disulfide 12-27, 18-34, 8-24, mature) [potato carboxypeptidase inhibitor (PCI)]
- reversal of TM-induced suppression of t-PA-induced fibrinolysis in human plasma [4]: 12 nM

Continued, binder first:

B2: Carboxypeptidase R (CPR) (protein)
chain: T1 sequence (looked up)
- Dixon plot and slope replot, CPR-catalysed hydrolysis of hippuryl-L-arginine [3]: confirmed that CPR-2KR is a competitive inhibitor of CPR

B3: Carboxypeptidase N (CPN) (protein)
chain 1: CPMGCDCFVQEVFCSDEELATVPLDIPPYTKNIIFVETSFTTLETRAFGSNPNLTKVVFLNTQLCQFRPDAFGGLPRLEDLEVTGSSFLNLSTNIFSNLTSLGKLTLNFNMLEALPEGLFQHLAALESLHLQGNQLQALPRRLFQPLTHLKTLNLAQNLLAQLPEELFHPLTSLQTLKLSNNALSGLPQGVFGKLGSLQELFLDSNNISELPPQVFSQLFCLERLWLQRNAITHLPLSIFASLGNLTFLSLQWNMLRVLPAGLFAHTPCLVGLSLTHNQLETVAEGTFAHLSNLRSLMLSYNAITHLPAGIFRDLEELVKLYLGSNNLTALHPALFQNLSKLELLSLSKNQLTTLPEGIFDTNYNLFNLALHGNPWQCDCHLAYLFNWLQQYTDRLLNIQTYCAGPAYLKGQVVPALNEKQLVCPVTRDHLGFQVTWPDESKAGGSWDLAVQERAARSQCTYSNPEGTVVLACDQAQCRWLNVQLSPQQGSLGLQYNASQEWDLRSSCGSLRLTVSIEARAAGP
chain 2: VTFRHHRYDDLVRTLYKVQNECPGITRVYSIGRSVEGRHLYVLEFSDHPGIHEPLEPEVKYVGNMHGNEALGRELMLQLSEFLCEEFRNRNQRIVQLIQDTRIHILPSMNPDGYEVAAAQGPNKPGYLVGRNNANGVDLNRNFPDLNTYIYYNEKYGGPNHHLPLPDNWKSQVEPETRAVIRWMHSFNFVLSANLHGGAVVANYPYDKSFEHRVRGVRRTASTPTPDDKLFQKLAKVYSYAHGWMFQGWNCGDYFPDGITNGASWYSLSKGMQDFNYLHTNCFEITLELSCDKFPPEEELQREWLGNREALIQFLEQVHQGIKGMVLDENYNNLANAVISVSGINHDVTSGDHGDYFRLLLPGIYTVSATAPGYDPETVTVTVGPAEPTLVNFHLKRSIPQVSPVRRAPSRRHGVRAKVQPQARKKEMEMRQLQRGPA
- CPN-catalysed hydrolysis of hippuryl-L-arginine [3]: CPI-2KR did not exhibit any inhibitory activity against CPN at 506 nM

B4: CPI-2KR (linear 9-mer peptide Cys-Lys-Pro-Ala-Lys-Asn-Ala-Arg-Cys) (peptide)
peptide: CKPAKNARC-NH2
modifications: cysteine pairing not given here
notes: Linear form, no disulfide between the terminal Cys residues
- effective inhibitory concentration relative to PCI (fold) [4]: 10 fold
- effective inhibitory concentration, TM-induced retardation of t-PA-induced fibrinolysis [4]: 126 nM
- fold higher Ki than that of PCI [1]: 6 fold
- fold stronger binding affinity than PCI-2K-R [5]: ~46 fold
- Ki [6]: 8.8 nM

Reference: US20050130898A1 (HIDECHIKA OKADA, published 2005)
